Test results reported in the supplement of paper PMC9170038.

System: K4 kissing-loop RNA reporter
Test: apparent KD of K4 kissing-loop reporter; higher = weaker reporter binding
Details: Eterna round: R107
Method: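 RNA-MaP round R107: designed RNA switches with theophylline, tryptophan, arginine or FMN aptamers are transcribed on-chip within common flanks. They are titrated with a labelled K4 kissing-loop RNA reporter in RNA-MaP buffer (100 mM Tris pH 7.5, 80 mM KCl, 4 mM MgCl2), without ligand or with the indicated ligand. Median apparent KD per design.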

[1] = input ligand: theophylline 20 uM
[2] = input ligand: tryptophan 2.4 mM
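Further: bound reporter read as fluorescence of individual clusters on recovered sequencing chips by microscopy, with normalized cluster intensities fitted with a binding model.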

| Sequence | apparent KD of K4 kissing-loop reporter (input ligand: FMN 200 uM) | apparent KD of K4 kissing-loop reporter (input ligand: arginine 13.2 mM) | apparent KD of K4 kissing-loop reporter (input ligand: none) | apparent KD of K4 kissing-loop reporter [1] | apparent KD of K4 kissing-loop reporter [2] |
| --- | --- | --- | --- | --- | --- |
| UUCCUAUUAUUAACACUAUAUACAACUGAAGGAGCGACAAUAAAGUCAGGUAGGUCGCAGAAUUAAUGAGUGAUGUUCAUUUUUA [JR_ExcArginiA_Sub013] | 81.9 nM | 141 nM | 96.6 nM | 124 nM | 60.9 nM |
| CGCAGUGAUGUUGCUUAUAUUCUUGGUUAACGAGGACCGGUACGGCCGCCACUCGAUUUCUAUCUAUUCCAGUGUUAAUUUGAGU [JR_ExcTryptoA_Sub005] | 364 nM | 429 nM | 419 nM | 568 nM | 271 nM |
| CGAUAUAAGAAUAUAUAUCUCUAUUCAGAAGGAGCGUGUUUGUACACAGGUAGGUCGCUGAAAUUUAAACUAGUGAUGUUAGACU [JR_SSArginiA_Sub002] | 1170 nM | 878 nM | 1210 nM | 1000 nM | 890 nM |
| GCCGUACGCAUGGAUACCAGCAGAACUGCCCUCCCAGUGAUGUUGGGAGGAUCUUUCCUAUGCCCUUGGCAGCCAUGCGUACGGC | 148 nM | 113 nM | 126 nM | 117 nM | 117 nM |
| CAGACAUGCGGUAGGUUCAAGCGCUGGGAAGGAGCGCAGAUGACUGCAGGUAGGUCGCCCAGUGAUGUUGGGCUUUCCACCUAUG [Onbeenbi] | 110 nM | 122 nM | 120 nM | 150 nM | 107 nM |
| GCCUGUGCGCGAAGGAGCGCCGUGACAGGUUACUGCCUUGGGCAGUGAUGUUGCUCAAUCUGGCAGGUAGGUCGCGUGCACAGGC | 236 nM | 187 nM | 201 nM | 156 nM | 192 nM |
| UUUUUAUGCAGUGAUGUUGCUAAUAUAACAGAGGAUAUGCAUUAAAGCAGAAGGCUGAAAUACUAUACUUUAAUAAAUUAAAUUU [JR_SSFMNA_Sub013] | 94.2 nM | 136 nM | 107 nM | 144 nM | 82.7 nM |
| ACAGUACCGGGAAGGAGCGUGAAUGAGAAUGGAUAUAGUGAUGUUAUGUAUACGAACGAAUCGCAGGUAGGUCGCCCGGAUCCCU [SSArgB.aD] | 563 nM | 507 nM | 650 nM | 722 nM | 529 nM |
| UAAUUUAUGUCUUUAAUAUAAUUUUCAGAUACCAGUGAUUAUUAACACCCUUGGCAGCUGUGUAGAGUGAUGUUCUCAUGCUUAA [#07 K4 Theophylline A Exclusion] | 307 nM | 354 nM | 365 nM | 373 nM | 229 nM |
| AUUCGUUUAUGUGAUACCAGACUUUGCAGUGAUGUUGCAUUAAUUAAAGAUGUUUAGUUUGUCCCUUGGCAGCACUAUUUAUUUA [JR_SSTheophyB_Sub002] | 43.1 nM | 84.4 nM | 49.6 nM | 83.3 nM | 38.9 nM |
| AUUAUAAAGUCGGCCGCCACUGAGAGUAGUGAUGUUACUCUUUUCCUUUAGAUAUUAUAUUUUAUCAGGACCGGGACAUCAGAUU [JR_ExcTryptoB_Sub020] | 198 nM | 170 nM | 208 nM | 180 nM | 162 nM |
| GCCGUAGAUUGAAGGAGCGGCUUCAUCAAAUCUCUUGCCCGCACCAGUGAUGUUGGUGUUAGCCAGGUAGGUCGCAAUCUACGGC | 577 nM | 376 nM | 583 nM | 493 nM | 465 nM |
| UUGCCCGAUGGAGAUACCAGCAGUUGUGCAGUGAUGUUGCACAAGUACUCGCUCCAUUGCUGCCCUUGGCAGCUCCCGGCGAAAA [Reoraren] | 95.9 nM | 79.7 nM | 84.7 nM | 92.4 nM | 81.3 nM |
| UCCAGGAAUCAUGUCGUAGUGAUGUUAUGACGAGGACCGGUACGGCCGCCACUCGUCGUGGCCGGUUCUGAGGGCUAAUCUCUCA [theeternabot_exclusion_KL_Trp_A_34] | 247 nM | 214 nM | 273 nM | 227 nM | 632 nM |
| UUCUACGAGUGAUGUUCGUAGUGUAAUAGCUAGGAUAUCGUUUUUUCGAGAAGGAGCUUCGAAGUGAUACGAAAGUAUCGCUUCG [FMN A 12] | 227 nM | 369 nM | 349 nM | – | 264 nM |
| UAUUUAGUGACGGCCGCCACUAUUGUGAUUUAUUUGUUUGAGUGAUGUUUUGAUGUUUGAUUUUGUAGGACCGGGUUAUGUGUUA [awscmullin] | 1080 nM | 733 nM | 938 nM | 804 nM | 708 nM |
| UUGCUUCUACUAGGAUAUCAUCAGUCAUGUUCAAUGACACUCGAGUGAUGUUCGAUAGAAGCGAGAUGAGAAGGAGUACAAGCAG [FMB B SS t3] | 374 nM | 48.8 nM | 159 nM | 118 nM | 70.7 nM |

| Sequence | apparent KD of K4 kissing-loop reporter (input ligand: FMN 200 uM) | apparent KD of K4 kissing-loop reporter (input ligand: arginine 13.2 mM) | apparent KD of K4 kissing-loop reporter (input ligand: none) | apparent KD of K4 kissing-loop reporter [1] | apparent KD of K4 kissing-loop reporter [2] |
| --- | --- | --- | --- | --- | --- |
| UUUAUUAAGACGGCCGCCACUGAUUCAUAGUGAUGUUAUGAUAUAAUCUUAGUGAUAUUUAUAAACAGGACCGGGUCAAUUAUUA [JR_SSTryptoB_Sub026] | 221 nM | 173 nM | 192 nM | 166 nM | 162 nM |
| AGGCACGAGCAAGGAUAUUGAGUAGAGUGAUGUUCUGCCUGGGUUGGCUCGUAAGAGCCUUCUCAGCGAGAAGGUGCUCGUGCCU [#2 Same State - FMN A Attempt #23 (HarryS)] | 254 nM | 432 nM | 679 nM | 552 nM | 636 nM |
| UUUUAAUGCAGUGAUGUUGCUAAUAAAACAGAGGAUAUGCAUGGAAGCAGAAGGCUGAUAUAUUAUACUUUAAUAUAUUAUAUUU [JR_SSFMNA_Sub011] | 77.8 nM | 147 nM | 121 nM | 188 nM | 86.6 nM |
| UGAUUUAACUGAAGGAGCGGCAAUUGAUAAGGAAAUAUAGUGAUGUUAUAUAAGAGAGAGAGCCAGGUAGGUCGCAGAGGGAGGA [ExArgB.H] | 182 nM | 105 nM | 110 nM | 154 nM | 145 nM |
| AUUAUAAAGACGGCCGCCACUGAGAGUAGUGAUGUUACUCUUUUCCUUUAGAUAUUAUAUUUUAUCAGGACCGGGUUUUUUGAUU [JR_Nu_ExcTryptoB_Sub025] | 97.3 nM | 86.7 nM | 90.3 nM | 88.1 nM | 91.9 nM |
| GCACACUAGUAAACUAGUGUGUUAACUGAAGGAGCGUGAAUAAUCACAGGUAGGUCGCAGUUUGUCAGUGAUGUUGACACGAGUG [Arg A SS t2] | 165 nM | 217 nM | 249 nM | 247 nM | 179 nM |
| GCUAUGGUAGGAAGGAGCGCUUGCUCGGUCAUAUGAGUGAUGUUCGAGACUGAGCAUUUAUAGCAGGUAGGUCGCCUACUAUAGC [Arginine B K4 9] | 235 nM | 206 nM | 182 nM | 242 nM | 177 nM |
| AAACGUUGGUGCGAUACCAGCUUGCGCGGAAAACGCGCUACUGGAGUGAUGUUCCUAAAUAGCCCUUGGCAGCGCACCGACGAAA [MAT - Same State Theophlline B - Mod of Eli - D9] | 193 nM | 146 nM | 155 nM | 107 nM | 170 nM |
| AUGUACAUUCUCAGUGAUGUUGGGUUGUAACGAGGACCGGUACGGCCGCCACUCGGGAUGUGGUAUAUAGAUGUAUGUGUAGCAU [skye_SS_TA] | 612 nM | 271 nM | 446 nM | 512 nM | 439 nM |
| AGACUUCACCGAAGGAGCGACGUGGCCUAGUGAUGUUAGGCACGAGAGAAAUCUCGUGUACGUCAGGUAGGUCGCGGUGAAGUCA [Omei KL Arginine B SS C v7] | 909 nM | 648 nM | 939 nM | 862 nM | 816 nM |
| AAUUAAUACAGAAGGAGCGUGUUUUUUAAUUUAUUUUCAUGAUCGAGUGAUGUUCGAUAUACACAGGUAGGUCGCUGUAUAUUUA [JR_SSArginiB_Sub008] | 98.8 nM | 142 nM | 113 nM | 139 nM | 92.1 nM |
| CUGAGCCUGACGAAAGUCAGGCUCUGCGAGCGAGGACCGGUACGGCCGCCACUCGGUGCAGUGAUGUUGCAUGGCCGCAAGGCCG [#2 Exclusion - Tryptophan A Attempt #18 (HarryS)] | 263 nM | 289 nM | 207 nM | 256 nM | 262 nM |
| AAAUGUUUGUAUUUGAACAAUUUCCUUAGAGAGGAUAUUGGUAAUACAAGAAGGCUCUGAUGGGAGUGAUGUUCCCAUAACGCGG [Exclusion FMN A GF14] | 110 nM | 114 nM | 119 nM | 126 nM | 91 nM |
| GUCCGGAAGGCGGCUUCACGACCGUGGUGGGAGGAUAUGUCUAAGGACAGAAGGCCCAGUGAUGUUGGGCUUUAGGAGAGCCAUA [Ragele] | 310 nM | 128 nM | 143 nM | 116 nM | 118 nM |
| UACACGACUCGUGUAAACCGAGGUAACAGGCAGGAUAUGUAACGGAACAGAAGGGCCAUGUAGCGUGUCCAGUGAUGUUGGAUGC [Betilare] | 199 nM | 166 nM | 186 nM | 180 nM | 173 nM |
| UUUAAACAUAGUGAUGUUAUGUAACAAUGACGAGGACCGGUACGGCCGCCACUCGAGAGAGAUAAUGAUAAAAUAAAUAAUUUUC [#09 K4 Tryptophan A Same State] | 109 nM | 111 nM | 118 nM | 115 nM | 92.4 nM |
